Patent US20240218060A1
Blank lines part the entries; values can stand above or below the substance they belong to.

Experiments:
[1] = target: human neonatal Fc-receptor (FcRn) (human) (UniProt P55899); test: FcRn affinity chromatography, bispecific KiH antibody
[2] = target: human neonatal Fc-receptor (FcRn) (human) (UniProt P55899); test: FcRn affinity chromatography of a knobs-into-holes bispecific antibody
[3] = target: human neonatal Fc-receptor (FcRn) (human) (UniProt P55899); test: FcRn affinity chromatography, anti-HER2 antibody
[4] = target: human neonatal Fc-receptor (FcRn) (human) (UniProt P55899); test: FcRn affinity chromatography

Substance: bispecific antibody (knobs-into-holes), one chain with H310A
- retention time on FcRn affinity column [1]: 48.4 min
- RT (Min) on the FcRn affinity column [2]: 48.4 min

Substance: anti-HER2 antibody, symmetric Q311H
- retention time on FcRn affinity column [3]: 46.3 min

Substance: anti-HER2 antibody, symmetric T256H
- retention time on FcRn affinity column [3]: 46 min

Substance: bispecific antibody (knobs-into-holes), one chain with I253A
- retention time on FcRn affinity column [1]: 48.8 min
- RT (Min) on the FcRn affinity column [2]: 48.8 min

Substance: bispecific antibody (knobs-into-holes), first chain I253A/H310A/H435A, second chain H435A
- RT (Min) on the FcRn affinity column [2]: 0 min

Substance: bispecific antibody (knobs-into-holes), one chain with H310A/H433A/Y436A
- retention time on FcRn affinity column [1]: 46.7 min

Substance: anti-HER2 antibody, wild-type
- retention time on FcRn affinity column [3]: 46.3 min

Substance: IgG1 Fc-region molecule with L234A/L235A/P329G and Y436A (symmetric)
- FcRn-affinity column retention time [4]: 41.3 min

Substance: bispecific antibody (knobs-into-holes), one chain with M252Y/S254T/T256E
- retention time on FcRn affinity column [1]: 56.2 min

Further lines, results first:

- retention time on FcRn affinity column [1]: 48.8 min
- RT (Min) on the FcRn affinity column [2]: 48.8 min
Substance: bispecific antibody (knobs-into-holes), one chain with H435A

- retention time on FcRn affinity column [3]: 46.4 min
Substance: anti-HER2 antibody, symmetric E430H

- retention time on FcRn affinity column [3]: 45.6 min
Substance: anti-HER2 antibody, symmetric E258H

- retention time on FcRn affinity column [1]: 46.3 min
Substance: bispecific antibody (knobs-into-holes), one chain with L251D/L314D/L432D

- RT (Min) on the FcRn affinity column [2]: 0 min
Substance: bispecific antibody (knobs-into-holes), first chain I253A/H310A/H435A, second chain H310A

- retention time on FcRn affinity column [3]: 41.4 min
Substance: anti-HER2 antibody, symmetric R255D

- retention time on FcRn affinity column [3]: 52 min
Substance: anti-HER2 antibody, symmetric N434H

- RT (Min) on the FcRn affinity column [2]: 0 min
Substance: bispecific antibody (knobs-into-holes), first chain I253A/H310A/H435A, second chain I253A/H310A/H435A

- retention time on FcRn affinity column [3]: 45.5 min
Substance: anti-HER2 antibody, symmetric L309H

- retention time on FcRn affinity column [3]: 46.3 min
Substance: anti-HER2 antibody, symmetric K317H

- retention time on FcRn affinity column [3]: 46.2 min
Substance: anti-HER2 antibody, symmetric K290H

- retention time on FcRn affinity column [3]: 45.2 min
Substance: anti-HER2 antibody, symmetric K288E
